{"source": "paper PMC2729490", "about": "(Biochemistry, 2009)", "key": {"CaM": {"test_system": "CaM", "settings": "helix 5 independently expressed; ref [22]; cited from earlier work"}, "[1]": {"target": "calmodulin (human, Ca2+-loaded) (human) (UniProt P0DP23)", "assay": "NMR titration"}, "[2]": {"target": "HVR peptide (22 amino acid synthetic peptide representing the hypervariable region of K-Ras4B) (human)", "assay": "ITC"}}, "data": [{"substance": "α–helix 5 peptide (amino acids 151–166): hydrophobic α–helix 5 peptide (amino acids 151–166) of K-Ras4B, independently expressed, literature (RVEDAFYTLVREIRQY; isoform 2B; UniProt P01116 151-166, looked up, fragment)", "values": [{"measurement": "CaM binding", "setting": "CaM", "result": "apparent binding to CaM"}]}, {"substance": "HVR peptide (22 amino acid synthetic peptide representing the hypervariable region of K-Ras4B)", "values": [{"measurement": "Kd", "setting": "[1]", "result": 17.5, "unit": "µM"}]}, {"substance": "calmodulin (human, Ca2+-loaded) (from UniProt P0DP23 1-149) (natural protein)", "values": [{"measurement": "Kd", "setting": "[2]", "result": 11.2, "unit": "µM"}, {"measurement": "dH", "setting": "[2]", "result": 0.65, "unit": "kcal/mol"}, {"measurement": "stoichiometry N", "setting": "[2]", "result": 1}]}]}
